Where two headings read alike, the source gives them in different places.
What was measured:
[1] = molecular target: TSHR Lys183Ala expressed in CHO cells (human) (UniProt P16473); assay: cell-based or functional assay
[2] = molecular target: TSHR with Asp43 mutated to Alanine expressed on CHO cells (human) (UniProt P16473); assay: cell-based or functional assay
[3] = molecular target: TSHR with activating mutation A623I expressed on CHO cells (human) (UniProt P16473); assay: cell-based or functional assay
[4] = molecular target: TSHR with activating mutation I568T expressed on CHO cells (human) (UniProt P16473); assay: cell-based or functional assay
[5] = molecular target: TSHR with activating mutation S281I expressed on CHO cells (human) (UniProt P16473); assay: cell-based or functional assay
[6] = molecular target: human TSHR (wild type) expressed in CHO cells (human) (UniProt P16473); assay: cell-based or functional assay
[7] = molecular target: wild type human TSHR (thyrotropin receptor) expressed on CHO cells (human) (UniProt P16473); assay: cell-based or functional assay
[8] = molecular target: TSHR with Phe130 mutated to Alanine expressed on CHO cells (human) (UniProt P16473); assay: cell-based or functional assay
[9] = molecular target: wild type human TSHR (thyrotropin receptor) expressed on CHO cells (human) (UniProt P16473); assay: cell-based or functional assay; remark: listed apart in the source
[10] = molecular target: TSHR coated onto tubes (TSHR coated tubes) (human) (UniProt P16473); assay: TSHR coated tubes, in presence of HBD pool
[11] = molecular target: TSHR coated onto tubes (TSHR coated tubes) (human) (UniProt P16473); assay: TSHR coated tubes, in the presence of HBD pool (Tables 4a, 4b)
[12] = molecular target: TSHR coated onto tubes (TSHR coated tubes) (human) (UniProt P16473); assay: Scatchard analysis, 125I-5C9 IgG and unlabelled 5C9 IgG in TSHR coated tubes
[13] = molecular target: TSHR coated on ELISA plate wells (RSR Ltd) (human) (UniProt P16473); assay: ELISA on TSHR-coated wells, 5C9 IgG-biotin binding with HBD pool (no competitor)

% inhibition of TSH stimulation of cyclic AMP; 5C9 IgG 1 µg/mL [1]: 28%
% inhibition of TSH stimulation of cyclic AMP; 5C9 IgG 100 µg/mL [1]: 43%
Cyclic AMP produced; 5C9 0.01 µg/mL + TSH (fmol/cell well) [2]: 12700
Cyclic AMP produced; 5C9 0.1 µg/mL + TSH (fmol/cell well) [2]: 6730
Cyclic AMP produced; 5C9 1.0 µg/mL + TSH (fmol/cell well) [2]: 471
Cyclic AMP produced; 5C9 10 µg/mL + TSH (fmol/cell well) [2]: 119
Cyclic AMP produced; 5C9 100 µg/mL + TSH (fmol/cell well) [2]: 31
Cyclic AMP produced; 5C9 100 µg/mL only (fmol/cell well) [2]: 206
Mutated/wild type (%); 5C9 0.01 µg/mL + TSH [2]: 97%
Mutated/wild type (%); 5C9 0.1 µg/mL + TSH [2]: 86%
Mutated/wild type (%); 5C9 1.0 µg/mL + TSH [2]: 23%
Mutated/wild type (%); 5C9 10 µg/mL + TSH [2]: 39%
Mutated/wild type (%); 5C9 100 µg/mL + TSH [2]: 37%
Mutated/wild type (%); 5C9 100 µg/mL only [2]: 438%
Cyclic AMP concentration (basal) in the presence of 5C9 IgG (1 µg/mL) (fmol/cell well) [3]: 1910
inhibition of basal cyclic AMP activity; 5C9 IgG at 1 µg/mL [3]: 49%
Cyclic AMP concentration (basal) in the presence of 5C9 IgG (1 µg/mL) (fmol/cell well) [4]: 548
Cyclic AMP concentration (basal) in the presence of 5C9 IgG (1 µg/mL) (fmol/cell well) [5]: 655
% inhibition of TSH stimulation of cyclic AMP; 5C9 IgG 1 µg/mL; wild type in the Asp151Ala experiment [6]: 88%
% inhibition of TSH stimulation of cyclic AMP; 5C9 IgG 1 µg/mL; wild type in the Lys183Ala experiment [6]: 84%
% inhibition of TSH stimulation of cyclic AMP; 5C9 IgG 100 µg/mL; wild type in the Lys183Ala experiment [6]: 93%
activity in blocking TSH stimulation of cyclic AMP, relative to donor serum IgG [6]: 3900 times
basal cyclic AMP level relative to cyclic AMP assay buffer; 5C9 IgG 1 µg/mL; CHO cells with approximately 5x10^5 wild type TSHRs per cell [6]: 33%
cyclic AMP production; 5C9 IgG 0.001 µg/mL + M22 Fab 3 ng/mL (fmol/cell well) [6]: 11600
cyclic AMP production; 5C9 IgG 0.001 µg/mL + pTSH 3 ng/mL (fmol/cell well) [6]: 14100
cyclic AMP production; 5C9 IgG 0.001 µg/mL only (fmol/cell well) [6]: 554
cyclic AMP production; 5C9 IgG 0.01 µg/mL + M22 Fab 3 ng/mL (fmol/cell well) [6]: 9980
cyclic AMP production; 5C9 IgG 0.01 µg/mL + pTSH 3 ng/mL (fmol/cell well) [6]: 15000
cyclic AMP production; 5C9 IgG 0.01 µg/mL only (fmol/cell well) [6]: 578
cyclic AMP production; 5C9 IgG 0.1 µg/mL + M22 Fab 3 ng/mL (fmol/cell well) [6]: 1300
cyclic AMP production; 5C9 IgG 0.1 µg/mL + pTSH 3 ng/mL (fmol/cell well) [6]: 3920
cyclic AMP production; 5C9 IgG 0.1 µg/mL only (fmol/cell well) [6]: 404
cyclic AMP production; 5C9 IgG 1 µg/mL + M22 Fab 3 ng/mL (fmol/cell well) [6]: 956
cyclic AMP production; 5C9 IgG 1 µg/mL + pTSH 3 ng/mL (fmol/cell well) [6]: 1870
cyclic AMP production; 5C9 IgG 1 µg/mL only (fmol/cell well) [6]: 376
cyclic AMP production; 5C9 IgG 10 µg/mL + M22 Fab 3 ng/mL; mean of duplicate samples (fmol/cell well) [6]: 638
cyclic AMP production; 5C9 IgG 10 µg/mL + pTSH 3 ng/mL (fmol/cell well) [6]: 1030
cyclic AMP production; 5C9 IgG 10 µg/mL only (fmol/cell well) [6]: 360
cyclic AMP production; 5C9 IgG 100 µg/mL + M22 Fab 3 ng/mL (fmol/cell well) [6]: 354
cyclic AMP production; 5C9 IgG 100 µg/mL + pTSH 3 ng/mL (fmol/cell well) [6]: 1090
cyclic AMP production; 5C9 IgG 100 µg/mL only (fmol/cell well) [6]: 426
cyclic AMP; 5C9 IgG 0.01 µg/mL + pTSH (3 ng/mL) (fmol/cell well) [6]: 19000
cyclic AMP; 5C9 IgG 0.02 µg/mL + pTSH (3 ng/mL) (fmol/cell well) [6]: 16400
cyclic AMP; 5C9 IgG 0.04 µg/mL + pTSH (3 ng/mL) (fmol/cell well) [6]: 13900
cyclic AMP; 5C9 IgG 0.06 µg/mL + pTSH (3 ng/mL); single determination (fmol/cell well) [6]: 13300
cyclic AMP; 5C9 IgG 0.08 µg/mL + pTSH (3 ng/mL) (fmol/cell well) [6]: 14500
cyclic AMP; 5C9 IgG 0.1 µg/mL + pTSH (3 ng/mL) (fmol/cell well) [6]: 11900
cyclic AMP; 5C9 IgG 0.5 µg/mL + pTSH (3 ng/mL) (fmol/cell well) [6]: 4750
cyclic AMP; 5C9 IgG 1 µg/mL + pTSH (3 ng/mL) (fmol/cell well) [6]: 2210
cyclic AMP; 5C9 IgG only 1 µg/mL (fmol/cell well) [6]: 141
cyclic AMP; Example 1; 5C9 IgG 10 µg/mL + TSH (fmol/cell well) [6]: 247
cyclic AMP; Example 1; 5C9 IgG 100 µg/mL + TSH (fmol/cell well) [6]: 754
cyclic AMP; Example 1; 5C9 IgG 100 µg/mL only (fmol/cell well) [6]: 237
cyclic AMP; Example 2; 5C9 IgG 10 µg/mL + TSH (fmol/cell well) [6]: 723
cyclic AMP; Example 2; 5C9 IgG 100 µg/mL + TSH (fmol/cell well) [6]: 1110
cyclic AMP; Example 2; 5C9 IgG 100 µg/mL only (fmol/cell well) [6]: 338
inhibition of cyclic AMP production stimulated by patient serum T3; 5C9 IgG 100 µg/mL [6]: 50%
Cyclic AMP concentration (basal) in the presence of 5C9 IgG (1 µg/mL) (fmol/cell well) [7]: 1870
Cyclic AMP produced; 5C9 0.01 µg/mL + TSH (fmol/cell well) [7]: 13100
Cyclic AMP produced; 5C9 0.1 µg/mL + TSH (fmol/cell well) [7]: 7810
Cyclic AMP produced; 5C9 1.0 µg/mL + TSH (fmol/cell well) [7]: 2020
Cyclic AMP produced; 5C9 10 µg/mL + TSH (fmol/cell well) [7]: 306
Cyclic AMP produced; 5C9 100 µg/mL + TSH (fmol/cell well) [7]: 84
Cyclic AMP produced; 5C9 100 µg/mL only (fmol/cell well) [7]: 47
Cyclic AMP produced; Experiment 1; 5C9 0.01 µg/mL + TSH (fmol/cell well) [7]: 17000
Cyclic AMP produced; Experiment 1; 5C9 0.1 µg/mL + TSH (fmol/cell well) [7]: 5950
Cyclic AMP produced; Experiment 1; 5C9 1.0 µg/mL + TSH (fmol/cell well) [7]: 1060
Cyclic AMP produced; Experiment 1; 5C9 10 µg/mL + TSH (fmol/cell well) [7]: 496
Cyclic AMP produced; Experiment 1; 5C9 100 µg/mL + TSH (fmol/cell well) [7]: 193
Cyclic AMP produced; Experiment 1; 5C9 100 µg/mL only (fmol/cell well) [7]: 1270
Cyclic AMP produced; Experiment 2; 5C9 0.01 µg/mL + TSH (fmol/cell well) [7]: 18600
Cyclic AMP produced; Experiment 2; 5C9 0.1 µg/mL + TSH (fmol/cell well) [7]: 4220
Cyclic AMP produced; Experiment 2; 5C9 1.0 µg/mL + TSH (fmol/cell well) [7]: 738
Cyclic AMP produced; Experiment 2; 5C9 10 µg/mL + TSH (fmol/cell well) [7]: 214
Cyclic AMP produced; Experiment 2; 5C9 100 µg/mL + TSH (fmol/cell well) [7]: 238
Cyclic AMP produced; Experiment 2; 5C9 100 µg/mL only (fmol/cell well) [7]: 211
Cyclic AMP produced; 5C9 0.01 µg/mL + TSH (fmol/cell well) [8]: 17400
Cyclic AMP produced; 5C9 0.1 µg/mL + TSH (fmol/cell well) [8]: 9020
Cyclic AMP produced; 5C9 1.0 µg/mL + TSH (fmol/cell well) [8]: 2240
Cyclic AMP produced; 5C9 10 µg/mL + TSH (fmol/cell well) [8]: 1140
Cyclic AMP produced; 5C9 100 µg/mL + TSH (fmol/cell well) [8]: 603
Cyclic AMP produced; 5C9 100 µg/mL only (fmol/cell well) [8]: 446
Mutated/wild type (%); 5C9 0.01 µg/mL + TSH [8]: 114%
Mutated/wild type (%); 5C9 0.1 µg/mL + TSH [8]: 332%
Mutated/wild type (%); 5C9 1.0 µg/mL + TSH [8]: 562%
Mutated/wild type (%); 5C9 10 µg/mL + TSH [8]: 754%
Mutated/wild type (%); 5C9 100 µg/mL + TSH [8]: 251%
Mutated/wild type (%); 5C9 100 µg/mL only [8]: 134%
Cyclic AMP produced; 5C9 0.01 µg/mL + TSH (fmol/cell well) [9]: 15300
Cyclic AMP produced; 5C9 0.1 µg/mL + TSH (fmol/cell well) [9]: 2710
Cyclic AMP produced; 5C9 1.0 µg/mL + TSH (fmol/cell well) [9]: 398
Cyclic AMP produced; 5C9 10 µg/mL + TSH (fmol/cell well) [9]: 151
Cyclic AMP produced; 5C9 100 µg/mL + TSH (fmol/cell well) [9]: 240
Cyclic AMP produced; 5C9 100 µg/mL only (fmol/cell well) [9]: 334
% binding of labelled tracer [10]: 20%
% of labelled protein bound [11]: 17%
Ka [12]: 4e+10 M⁻¹
Abs 450 nm [13]: 2.42 Abs 450 nm
B1: 5C9 IgG (human monoclonal autoantibody to the TSHR) (antibody, from another filing, V domains shown)
VH: EVQLVESGGGLIQPGGSLRLSCAASGFTVSSNYMSWVRQAPGKGLEWVSVTYSGGSTSYADSVKGRFTISRDNSKNTLYLQMNSLRAEDTAVYYCARGGRYCSSISCYARSGCDYWGQGTLVTVSS
VL: AIQMTQSPSSLSASVGDRVTITCRASQSISNYLNWYQQKPGKAPKLLIYAASSLQSGVPSRFSGSGSGTDFTLTISSLQPEDFATYYCQQSYSSPSTTFGQGTKLEIK

From patent US8840891 (RSR, dated 2014)
